Data: patent US12104181B2, “Compositions and methods for treating viral infections targeting TRIM7” (THE BOARD OF REGENTS OF THE UNIVERSITY OF TEXAS SYSTEM, priority 2021, dated 2024)

Tested on: coxsackievirus B3 (CVB3-GFP)
Format: cell-based
Details: HeLa cells, replicate R1; for Percent Infected R1: GFP-positive cells within RFP-positive gate

B1: RNF151: human RING type E3 ligase expressed from lentiviral vector (protein, UniProt Q2KHN1 1-245, looked up)
RING finger protein 151: MGGGYDLNLFASPPDSNFVCSVCHGVLKRPARLPCSHIFCKKCILRWLARQKTCPCCRKEVKRKKVVHMNKLRKTIGRLEVKCKNADAGCIVTCPLAHRKGHQDSCPFELTACPNEGCTSQVPRGTLAEHRQHCQQGSQQRCPLGCGATLDPAERARHNCYRELHNAWSVRQERRRPLLLSLLRRVRWLDQATSVVRRELAELSNFLEEDTALLEGAPQEEAEAAPEGNVGAEVVGEPRANIPCK
- Percent Infected R1: 92.8%
- Z score R1: 0.05

B2: MARCH1: human RING type E3 ligase expressed from lentiviral vector (protein, UniProt Q8TCQ1 1-289, looked up)
E3 ubiquitin-protein ligase …: MLGWCEAIARNPHRIPNNTRTPEISGDLADASQTSTLNEKSPGRSASRSSNISKASSPTTGTAPRSQSRLSVCPSTQDICRICHCEGDEESPLITPCRCTGTLRFVHQSCLHQWIKSSDTRCCELCKYDFIMETKLKPLRKWEKLQMTTSERRKIFCSVTFHVIAITCVVWSLYVLIDRTAEEIKQGNDNGVLEWPFWTKLVVVAIGFTGGLVFMYVQCKVYVQLWRRLKAYNRVIFVQNCPDTAKKLEKNFSCNVNTDIKDAVVVPVPQTGANSLPSAEGGPPEVVSV
- Percent Infected R1: 97.7%
- Z score R1: 0.12

B3: RNF152: human RING type E3 ligase expressed from lentiviral vector (protein, UniProt Q8N8N0 1-203, looked up)
E3 ubiquitin-protein ligase …: METLSQDSLLECQICFNYYSPRRRPKLLDCKHTCCSVCLQQMRTSQKDVRCPWCRGVTKLPPGFSVSQLPDDPEVLAVIAIPHTSEHTPVFIKLPSNGCYMLPLPISKERALLPGDMGCRLLPGSQQKSVTVVTIPAEQQPLQGGAPQEAVEEEQDRRGVVKSSTWSGVCTVILVACVLVFLLGIVLHNMSCISKRFTVISCG
modifications: lentiviral expression
notes: human RING type E3 ligase expressed from lentiviral vector
- Percent Infected R1: 97.4%
- Z score R1: 0.11

B4: RNF180: human RING type E3 ligase expressed from lentiviral vector (protein, UniProt Q86T96 1-592, looked up)
E3 ubiquitin-protein ligase …: MKRSKELITKNHSQEETSILRCWKCRKCIASSGCFMEYLENQVIKDKDDSVDAQNICHVWHMNVEALPEWISCLIQKAQWTVGKLNCPFCGARLGGFNFVSTPKCSCGQLAAVHLSKSRTDYQPTQAGRLMRPSVKYLSHPRVQSGCDKEALLTGGGSENRNHRLLNMARNNNDPGRLTEALCLEVRPTYFEMKNEKLLSKASEPKYQLFVPQLVTGRCATRAFHRKSHSLDLNISEKLTLLPTLYEIHSKTTAYSRLNETQPIDLSGLPLQSSKNSYSFQNPSSFDPSMLLQRFSVAPHETQTQRGGEFQCGLEAASVYSDHTNTNNLTFLMDLPSAGRSMPEASDQEEHLSPLDFLHSANFSLGSINQRLNKRERSKLKNLRRKQRRRERWLQKQGKYSGVGLLDHMTLNNEMSTDEDNEYAEEKDSYICAVCLDVYFNPYMCYPCHHIFCEPCLRTLAKDNPSSTPCPLCRTIISRVFFQTELNNATKTFFTKEYLKIKQSFQKSNSAKWPLPSCRKAFHLFGGFRRHAAPVTRRQFPHGAHRMDYLHFEDDSRGWWFDMDMVIIYIYSVNWVIGFIVFCFLCYFFFPF
modifications: lentiviral expression
notes: as for B3
- Percent Infected R1: 93.2%
- Z score R1: 0.06

B5: RI NG1: human RING type E3 ligase expressed from lentiviral vector (protein, UniProt Q06587 1-406, looked up)
E3 ubiquitin-protein ligase …: MTTPANAQNASKTWELSLYELHRTPQEAIMDGTEIAVSPRSLHSELMCPICLDMLKNTMTTKECLHRFCSDCIVTALRSGNKECPTCRKKLVSKRSLRPDPNFDALISKIYPSREEYEAHQDRVLIRLSRLHNQQALSSSIEEGLRMQAMHRAQRVRRPIPGSDQTTTMSGGEGEPGEGEGDGEDVSSDSAPDSAPGPAPKRPRGGGAGGSSVGTGGGGTGGVGGGAGSEDSGDRGGTLGGGTLGPPSPPGAPSPPEPGGEIELVFRPHPLLVEKGEYCQTRYVKTTGNATVDHLSKYLALRIALERRQQQEAGEPGGPGGGASDTGGPDGCGGEGGGAGGGDGPEEPALPSLEGVSEKQYTIYIAPGGGAFTTLNGSLTLELVNEKFWKVSRPLELCYAPTKDPK
- Percent Infected R1: 92.9%
- Z score R1: 0.05
